Measured values from patent publication US20210079060A1 (ALETA BIOTHERAPEUTICS, published 2021).
Several values for one entry are separate records, joined by “and”; a condition that tells them apart may be missing. Equal entries are not always repeated. Where two headings read alike, the source gives them in different places. Blank lines part the entries; values can stand above or below the binder they belong to.

How the values were obtained:
[1] = target: T1, Clec12A (human, UniProt Q5QGZ9 1-265); test: FACS on Clec12A expressing U937 cells, detected with a-His-PE
T1 construct: whole, on cells; also called CLL-1; MICL
T1 sequence (looked up): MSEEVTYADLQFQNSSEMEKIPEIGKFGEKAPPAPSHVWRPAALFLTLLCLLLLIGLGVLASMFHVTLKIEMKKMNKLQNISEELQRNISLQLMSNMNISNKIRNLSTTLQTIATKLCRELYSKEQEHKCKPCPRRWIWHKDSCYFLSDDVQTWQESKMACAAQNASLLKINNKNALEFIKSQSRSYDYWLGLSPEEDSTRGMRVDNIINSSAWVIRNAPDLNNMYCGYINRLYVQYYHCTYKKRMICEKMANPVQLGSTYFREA

[2] = target: T1, Clec12A; test: sandwich ELISA: coated with FMC63, construct titrated (x-axis ug/ml), followed by Clec12A-bio, detected by HRP-SA
[3] = target: T1, Clec12A; test: FACS on Clec12A expressing U937 cells, detected with FMC63-PE
[4] = target: T1, Clec12A; test: FACS on Clec12A-expressing U937 cells, % Binding against concentration, detected with FMC63-PE; molar value with printed MW 43.7 kDa
Protocol: (§1) In addition, bispecific constructs were generated and assayed. […] These constructs were assayed for binding to U937 cells. […] Cells were then spun, washed twice, fixed, and analyzed by FACS.

[5] = target: T1, Clec12A; test: sandwich ELISA: coated with FMC63, construct titrated (x-axis ug/ml), followed by Clec12A-bio, detected by HRP-SA; remark: listed apart in the source
[6] = target: T1, Clec12A; test: FACS on Clec12A-expressing U937 cells, % Binding against concentration, detected with FMC63-PE
Protocol: as §1

[7] = target: T1, Clec12A; test: sandwich ELISA as for the other curves; the curve still rises at 1 ug/ml (about 1.33), no upper plateau; fit D 1.55
[8] = target: T1, Clec12A; test: sandwich ELISA as for the other curves; the curve stays near 0.13 up to about 0.33 ug/ml and reaches only about 0.18 at 1 ug/ml (fit A 0.13, D 0.202)
[9] = target: T2, CD20 (UniProt P11836 1-297, limits assumed); test: FACS on 293T cells transfected with CD20, FMC63-PE detection
T2 construct: whole, on cells; also called CD20 positive HEK293 cells
T2 sequence (looked up): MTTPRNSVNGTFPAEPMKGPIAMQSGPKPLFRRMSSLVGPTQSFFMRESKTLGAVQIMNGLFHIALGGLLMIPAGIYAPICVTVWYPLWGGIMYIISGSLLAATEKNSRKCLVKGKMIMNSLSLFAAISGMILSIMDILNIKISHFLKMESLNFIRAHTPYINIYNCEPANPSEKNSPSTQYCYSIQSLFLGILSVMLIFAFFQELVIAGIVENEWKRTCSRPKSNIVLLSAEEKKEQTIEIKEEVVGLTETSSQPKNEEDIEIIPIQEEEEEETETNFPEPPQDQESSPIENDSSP

[10] = target: T2, CD20; test: FACS on CD20 positive HEK293 cells, detected with FMC63-PE
[11] = target: T2, CD20; test: binding to CD20 positive HEK293 cells (method of the fit not stated); scFv-based construct #302 (Leu16 scFv), not the full mAb
[12] = target: T2, CD20; test: binding to CD20 positive cells; unit as printed in the table; it follows from 22.34 ug/ml and MW 210.8 kDa, while the curve's axis is in ng/ml
[13] = target: T2, CD20; test: binding to CD20 positive HEK293 cells (method of the fit not stated)
[14] = target: T2, CD20; test: binding to CD20 positive cells; unit as printed in the table, but the x-axis of the curve is in ng/ml and the half-maximum lies near 20 on it
[15] = target: T1, Clec12A; test: sandwich ELISA: coated with FMC63, construct titrated, followed by Clec12A-bio, detected by HRP-SA
[16] = target: T3, EGFR (UniProt P00533 25-1210, limits assumed); test: binding to EGFR positive cells (data not shown)
T3 construct: whole, on cells; also called EGFR positive cells; EGFR positive H292 cells

B1: CD19 ECD N term mutant #2-G4Sx4-anti CLEC12a VHH 1B12-His (VHH)
chain: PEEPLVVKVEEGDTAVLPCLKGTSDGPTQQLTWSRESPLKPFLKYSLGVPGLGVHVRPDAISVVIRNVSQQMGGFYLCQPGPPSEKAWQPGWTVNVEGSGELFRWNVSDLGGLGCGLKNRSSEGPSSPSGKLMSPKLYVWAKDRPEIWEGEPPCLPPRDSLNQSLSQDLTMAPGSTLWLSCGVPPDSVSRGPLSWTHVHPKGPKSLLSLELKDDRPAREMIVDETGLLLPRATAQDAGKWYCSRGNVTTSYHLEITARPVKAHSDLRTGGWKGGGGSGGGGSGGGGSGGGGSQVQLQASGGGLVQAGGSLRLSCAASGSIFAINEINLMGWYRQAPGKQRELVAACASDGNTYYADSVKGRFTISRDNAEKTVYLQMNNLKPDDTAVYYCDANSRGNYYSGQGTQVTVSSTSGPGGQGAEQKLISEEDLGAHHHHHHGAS
notes: CD19 variant-VHH fusion; also called CD19-VHH1B12/Clec12A
- EC50 [1]: 0.233 µg/mL and 4.96 nM
- C of the 4-P fit (midpoint) [2]: 0.00403 µg/mL
- EC50 [2]: 0.004 µg/mL and 0.086 nM
- EC50 [3]: 0.155 µg/mL and 3.3 nM

B3: #328 (VHH)
VHH: QVQLQESGGGLVQPGGSLRLSCAASGFTFNSYAMTWVRQAPGKGLEWVSDINSGGGSTNYADSVKGRFTISRDNAKNTLYLQMNSLKPEDTAVYYCATELRGSDYYRGPIREYAYWGQGTLVTVSS
notes: also called anti CLEC12a VHH 1H1-G4Sx4-CD19 C-term mutant #2-His
- EC50 [7]: 0.155 µg/mL and 3.33 nM

B4: #331 (VHH)
VHH: QVQLQQSGGGLVQAGGSLTLSCAATGRTIDNGAMAWFRQAPGKQRELVAAINWSGGATFYTDSVKYRFTISRDNVRHTLDLQMTSLKPEDTTIYFCASRRGVDLRRNSYEYDYWGRGTLVTVSS
notes: also called anti CLEC12a VHH 2C2-G4Sx4-CD19 C-term mutant #2-His
- EC50 [8]: 0.698 µg/mL and 15 nM

B5: CD19 D1+2-anti-CD20 scFv (VH/VL) (scFv)
chain: PEEPLVVKVEEGDNAVLQCLKGTSDGPTQQLTWSRESPLKPFLKLSLGLPGLGIHMRPLAIWLFIFNVSQQMGGFYLCQPGPPSEKAWQPGWTVNVEGSGELFRWNVSDLGGLGCGLKNRSSEGPSSPSGKLMSPKLYVWAKDRPEIWEGEPPCLPPRDSLNQSLSQDLTMAPGSTLWLSCGVPPDSVSRGPLSWTHVHPKGPKSLLSLELKDDRPARDMWVMETGLLLPRATAQDAGKYYCHRGNLTMSFHLEITARPGGGGSGGGGSGGGGSGGGGSMAQVKLQESGAELVKPGASVKMSCKASGYTFTSYNMHWVKQTPGQGLEWIGAIYPGNGDTSYNQKFKGKATLTADKSSSTAYMQLSSLTSEDSADYYCARSNYYGSSYWFFDVWGQGTTVTVSSGGGGSGGGGSGGGGSDIELTQSPTILSASPGEKVTMTCRASSSVNYMDWYQKKPGSSPKPWIYATSNLASGVPARFSGSGSGTSYSLTISRVEAEDAATYYCQQWSFNPPTFGGGTKLEIKRAAAHHHHHH
notes: Wild type CD19 D1+D2 N-terminal to the Leu16 scFv; also called construct #83; wild type CD19 D1+D2 fusion protein
- EC50 [9]: 0.379 µg/mL and 6.68 nM

B7: Rituximab-CD19 construct (#377/378) (antibody, human IgG1, kappa)
light: QIVLSQSPAILSASPGEKVTMTCRASSSVSYIHWFQQKPGSSPKPWIYATSNLASGVPVRFSGSGSGTSYSLTISRVEAEDAATYYCQQWTSNPPTFGGGTKLEIKRTVAAPSVFIFPPSDEQLKSGTASVVCLLNNFYPREAKVQWKVDNALQSGNSQESVTEQDSKDSTYSLSSTLTLSKADYEKHKVYACEVTHQGLSSPVTKSFNRGECGGGGSGGGGSGGGGSGGGGSPEEPLVVKVEEGDTAALWCLKGTSDGPTQQLTWSRESPLKPFLKYSLGVPGLGVHVRPDAISVVIRNVSQQMGGFYLCQPGPPSEKAWQPGWTVNVEGSGELFRWNVSDLGGLGCGLKNRSSEGPSSPSGKLMSPKLYVWAKDRPEIWEGEPPCLPPRDSLNQSLSRDLTVAPGSTLWLSCGVPPDSVSRGPLSWTHVHPKGPKSLLSLELKDDRPARDMWVMGTSLMLPRATAQDAGKWYCHRGNLTMSFHLEITARPSRHHHHHH
heavy: not shown
notes: also called Rituximab-based construct; wild type Rituximab-CD19 construct
- EC50 [10]: 0.00343 µg/mL and 0.0163 nM
- EC50 [12]: 106 nM
- Kd [13]: ~0.016 nM
- EC50 [14]: 22.3 µg/mL

More lines, now with the values ahead:

- EC50 [1]: 0.0446 µg/mL and 0.95 nM
- EC50 [4]: 1.03 nM
- C of the 4-P fit (midpoint) [5]: 0.0168 µg/mL
- EC50 [5]: 0.0168 µg/mL and 0.361 nM
- EC50 [3]: 0.0723 µg/mL and 1.54 nM
- EC50 [6]: 0.0449 µg/mL
- EC50 (read off the curve) [6]: ~0.05 µg/mL
B2: anti-CLEC12a VHH 2H3-CD19 D1+2 C term mutant #2 (VHH)
VHH: QVQLQESGGGLVQAGGSLRLSCVASGSIRSINVMGWYRQAPGKQRELVAACASDGNTYYADSVKGRFTISRDNAEKTVYLQMNNLKPDDTAVYYCDANSRGNYYSGQGTQVTVSS
notes: also called construct #330

- EC50 [10]: 0.161 µg/mL and 2.78 nM
- EC50 [9]: 0.0754 µg/mL and 1.3 nM
- Kd [11]: ~3 nM
B6: anti-CD20 scFv-CD19 D1+2 C term mutant #2 (scFv)
chain: QVKLQESGAELVKPGASVKMSCKASGYTFTSYNMHWVKQTPGQGLEWIGAIYPGNGDTSYNQKFKGKATLTADKSSSTAYMQLSSLTSEDSADYYCARSNYYGSSYWFFDVWGQGTTVTVSSASTGGGGSGGGGSGGGGSDIELTQSPTILSASPGEKVTMTCRASSSVNYMDWYQKKPGSSPKPWIYATSNLASGVPARFSGSGSGTSYSLTISRVEAEDAATYYCQQWSFNPPTFGGGTKLEIKRAAAGGGGSGGGGSGGGGSGGGGSPEEPLVVKVEEGDTAALWCLKGTSDGPTQQLTWSRESPLKPFLKYSLGVPGLGVHVRPDAISVVIRNVSQQMGGFYLCQPGPPSEKAWQPGWTVNVEGSGELFRWNVSDLGGLGCGLKNRSSEGPSSPSGKLMSPKLYVWAKDRPEIWEGEPPCLPPRDSLNQSLSRDLTVAPGSTLWLSCGVPPDSVSRGPLSWTHVHPKGPKSLLSLELKDDRPARDMWVMGTSLMLPRATAQDAGKWYCHRGNLTMSFHLEITARPSRHHHHHH
notes: scFv of anti-CD20 mAb Leu16 fused to a CD19 variant; also called Leu16scFv-CD19 construct

- binding result [15]: no binding (tested: 1 ug/ml)
B8: #320 (VHH)
fusion protein, single chain: PEEPLVVKVEEGDTAVLPCLKGTSDGPTQQLTWSRESPLKPFLKYSLGVPGLGVHVRPDAISVVIRNVSQQMGGFYLCQPGPPSEKAWQPGWTVNVEGSGELFRWNVSDLGGLGCGLKNRSSEGPSSPSGKLMSPKLYVWAKDRPEIWEGEPPCLPPRDSLNQSLSQDLTMAPGSTLWLSCGVPPDSVSRGPLSWTHVHPKGPKSLLSLELKDDRPAREMIVDETGLLLPRATAQDAGKWYCSRGNVTTSYHLEITARPVKAHSDLRTGGWKGGGGSGGGGSGGGGSGGGGSAVQLQESGGGLVQAGGSLRLSCAASGSDRSINVMNWYRQAPGKQRELVAAITSGGTTNYAQSVKGRVTISRDSAKNTVYLQMNSLKPEDTAVYFCKADTRWGGMYWGPGTQVTVSSTSGPGGQGAEQKLISEEDLGAHHHHHHGAS
notes: also called construct #320; CD19 mutant #2-G4Sx4-anti CLEC12a VHH 1B11 myc His

- binding result [16]: binds
B9: CD19 ECD N term mutant#-EGFR Fn3 (designed binder)
chain: PEEPLVVKVEEGDTAALWCLKGTSDGPTQQLTWSRESPLKPFLKYSLGVPGMGVHVRPNAVSLVISNVSQQMGGFYLCQPGPPSEKAWQPGWTVNVEGSGELFRWNVSDLGGLGCGLKNRSSEGPSSPSGKLMSPKLYVWAKDRPEIWEGEPPCLPPRDSLNQSLSRDMTVAPGSTLWLSCGVPPDSVSRGPLSWTHVHPKGPKSLLSLELKDDRPARDMWVMETGLVLPRATAQDAGKWYCHRGNVTTSYHLEITARPVSAHTPLRTGGWKGGGGSGGGGSGGGGSGGGGSVSDVPRDLEVVAATPTSLLISWFDYAVTYYRITYGETGGNSPVQEFTVPGWISTATISGLKPGVDYTITVYAVTDNSHWPFRSTPISTNYRTEIDKPPQHHHHHH
notes: Fusion protein; also called construct #230; CD19-Fn3/EGFR
